Test results taken from patent US20070213263A1, “Methods And Compositions Using Adiponectin For Treatment Of Cardiac Disorders And For Stimulation Of Angiogenesis” (The Trustees of Boston University, priority 2003, published 2007).

Columns and labels:
rat cardiac myocytes = experiment: Agonist-stimulated hypertrophy of cultured neonatal rat ventricular myocytes; type: cell-based
Description: [^3H] leucine incorporation was determined as previously described 74.
For histological analysis, the mice were sacrificed and LV tissue was obtained at 7 days after TAC. Tissue was embedded in OCT compound (Miles, Elkhart, Ind.) and snap-frozen in liquid nitrogen. Tissue slices (5 μm in thickness) were prepared. Tissue sections were stained with hematoxylin and eosin or with Masson trichrome. The myocyte cross sectional area was calculated by measuring 200 cells per section. To determine sarcomeric F-actin organization, cultured myocytes were stained with FITC-conjugated phalloidin (Sigma, St. Louis, Mo.).

HUVECs [1] = experiment: Migration assay (modified Boyden chamber); type: cell-based, human; conditions: adiponectin 30 μg/ml, VEGF 20 ng/ml, 4 h
Description: Migration activity was measured using a modified Boyden chamber assay. Serum-starved cells were trypsinized and resuspended in EGM-2 with 0.5% FBS. Cell suspension (250 μl, 2.0×10^4 cells/well) were added to the transwell fibronectin-coated insert (6.4 mm diameter, 3.0 μm pore size, Becton Dickinson, Franklin Lakes, N.J.). Then 750 μl of EGM-2 with 0.5% FBS supplemented with adiponectin (30 μg/ml), VEGF (20 ng/ml) or bovine serum albumin (BSA) (30 μg/ml) were added to lower chamber and incubated for 4 h. Migrated cells on the lower surface of the membrane were fixed, stained with Giemsa stain solution and eight random microscopic fields per well were quantified. All assays were performed in triplicate.

HUVECs [2] = experiment: Tube formation assay, HUVECs on Matrigel; type: cell-based, human; conditions: adiponectin 30 μg/ml, VEGF 20 ng/ml, 18 h
Description: The formation of vascular-like structures by HUVECs on growth factor-reduced Matrigel (Becton Dickinson) was performed as previously described^28. Twenty-four-well culture plates were coated with Matrigel according to the manufacturer's instructions. […] The degree of tube formation was quantified by measuring the length of tubes in 3 randomly chosen fields from each well using the angiogenic activity quantification program (Kurabo, Osaka, Japan). […]

ERK (Thr 202/Tyr 204) [3] = experiment: Western blot, ERK phosphorylation in cultured cardiac myocytes; type: cell-based, rat
[4] = system: AMPK (Thr 172 of α subunit); experiment: Western blot, AMPK phosphorylation in HUVECs; type: cell-based, human; conditions: adiponectin 30 μg/ml
Description: (§1) Human umbilical vein endothelium cells (HUVECs) were cultured in endothelial cell growth medium-2 (EGM-2, San Diego, Calif.). Before each experiment, cells were placed in endothelial cell basal medium-2 (EBM-2, San Diego, Calif.) with 0.5% fetal bovine serum (FBS) for 16 h for serum-starvation. Experiments were performed by the addition of the indicated amount of mouse recombinant adiponectin, VEGF or vehicle for the indicated lengths of time. In some experiments, HUVECs were infected with adenoviral constructs encoding dominant-negative AMPKα2^28, dominant-negative AKT1^19 or green fluorescence protein (GFP) at a multiplicity of infection (MOI) of 50 for 24 h. In some experiments, HUVECs were pretreated with LY294002 (10 μM) or vehicle for 1 h before stimulation with adiponectin. Cell lysates were resolved by SDS-PAGE. The membranes were immunoblotted with the indicated antibodies at a 1:1000 dilution followed by the secondary antibody conjugated with horseradish peroxidase (HRP) at a 1:5000 dilution. ECL-PLUS Western Blotting Detection kit (Amersham Pharmacia Biotech, Piscataway, N.J.) was used for detection.

ERK (Thr 202/Tyr 204) [5] = experiment: Western blot, ERK phosphorylation in HUVECs; type: cell-based, human; conditions: adiponectin 30 μg/ml, time course
Description: Human umbilical vein endothelium cells (HUVECs) were cultured in endothelial cell growth medium-2 (EGM-2, San Diego, Calif.). Before each experiment, cells were placed in endothelial cell basal medium-2 (EBM-2, San Diego, Calif.) with 0.5% fetal bovine serum (FBS) for 16 h for serum-starvation. Experiments were performed by the addition of the indicated amount of mouse recombinant adiponectin, VEGF or vehicle for the indicated lengths of time. In some experiments, HUVECs were infected with adenoviral constructs encoding dominant-negative AMPKα2^28, dominant-negative AKT1^19 or green fluorescence protein (GFP) at a multiplicity of infection (MOI) of 50 for 24 h. In some experiments, HUVECs were pretreated with LY294002 (10 μM) or vehicle for 1 h before stimulation with adiponectin. Cell lysates were resolved by SDS-PAGE. The membranes were immunoblotted with the indicated antibodies at a 1:1000 dilution followed by the secondary antibody conjugated with horseradish peroxidase (HRP) at a 1:5000 dilution.

endothelial cells = experiment: Cell-wounding assay (unpublished data); type: cell-based
Akt (Ser 473) = experiment: Western blot, Akt phosphorylation in HUVECs; type: cell-based, human; conditions: adiponectin 30 μg/ml, time course
Description: as §1

eNOS (Ser 1179) = experiment: Western blot, eNOS phosphorylation in HUVECs; type: cell-based, human; conditions: adiponectin 30 μg/ml
Description: as §1

[6] = system: CD31-positive cells in Matrigel plugs; experiment: Mouse angiogenesis assay (Matrigel plug); type: in vivo, C57BL mice; conditions: adiponectin 100 μg/ml in plug, subcutaneous, 14 days
Description: The formation of new vessels in vivo was evaluated by Matrigel plug assay as described previously^28. For these experiments, 400 μl of Matrigel containing adiponectin (100 μg/ml) or vehicle was injected subcutaneously into the abdomen of C57BL mice. Mice were sacrificed 14 days after the injection. The Matrigel plugs with adjacent subcutaneous tissues were carefully recovered by en bloc resection, fixed in 4% paraformaldehyde, dehydrated with 30% sucrose, and embedded in OCT compound (GTI Microsystems, Tempe, Ariz.) in liquid nitrogen. Immunohistostaining for CD31 (PECAM-1: Becton Dickinson) were performed on adjacent frozen sections. Primary antibody was used at a 1:50 dilution followed by incubation of secondary antibody (HRP-conjugated anti-rat IgG at a 1:100 dilution). The AEC Substrate Pack (Biogenex, San Ramon, Calif.) was used for detection. CD31-positive capillaries were counted in 4 randomly chosen low-power (×100) microscopic fields.

[7] = system: cornea neovascularization; experiment: Rabbit corneal angiogenesis assay; type: in vivo, New Zealand white rabbits; conditions: day 7
Description: Rabbit corneal assay was performed with minor modification as previously described^33. Male New Zealand white rabbits weighing 3.0-3.9 kg were used. Two pockets, about 2×3 mm size and 5 mm apart, were surgically prepared in the cornea extending toward a point 2 mm from the limbus. Hydron pellets, which contain indicated amount of adiponectin, VEGF (100 ng) or PBS and enables the slow release of it^34, were implanted into the pocket. On day 7 after surgery, eyes were photographed and cornea neovascularization was examined in a single blind manner. The angiogenic activity was evaluated on the basis of the number and growth rate of newly formed capillaries. An angiogenic score was calculated (vessel density×distance from limbus)^32. A density value of 1 corresponded to 0-25 vessels per cornea, 2 from […], 3 from 50-75, 4 from 75-100 and 5 for >100 vessels.

[8] = system: AMPK (Thr 172 of the α subunit); experiment: Western blot, AMPK phosphorylation in cultured cardiac myocytes; type: cell-based, rat; conditions: adiponectin 30 μg/ml, time course
[9] = adiponectin 30 μg/ml pretreatment, Pro 2 μM, NE 1 μM, 48 hours

N#CC(=C(/N)Sc1ccccc1N)/C(C#N)=C(\N)Sc1ccccc1N [U0126, reference compound]
reduction of αAR-induced hypertrophy (rat cardiac myocytes; p<0.01 vs. control): 82.1±7.8%

VEGF [reference compound]
HUVEC migration (HUVECs [1]): a trend toward greater migration with VEGF compared to adiponectin, but this was not statistically significant | formation of capillary-like tubes (tube length) (HUVECs [2]): a trend toward increased tube length in the VEGF-treated cultures relative to adiponectin, but this was not statistically significant

B1: adiponectin: Recombinant histidine-tagged mouse adiponectin (amino acids 15-247) expressed in bacteria; adipocyte specific cytokine (protein, UniProt Q15848 19-244, looked up)
Adiponectin: ETTTQGPGVLLPLPKGACTGWMAGIPGHPGHNGAPGRDGRDGTPGEKGEKGDPGLIGPKGDIGETGVPGAEGPRGFPGIQGRKGEPGEGAYVYRSAFSVGLETYVTIPNMPIRFTKIFYNQQNHYDGSTGKFHCNIPGLYYFAYHITVYMKDVKVSLFKKDKAMLFTYDQYQENNVDQASGSVLLHLEVGDQVWLQVYGEGERNGLYADNDNDSTFTGFLLYHDTN
αAR-stimulated increase in protein synthesis ([3H] leucine incorporation) (rat cardiac myocytes; [9]): prevented | αAR-stimulated re-organization of sarcomeric actin (rat cardiac myocytes; [9]): prevented | AngII-stimulated myocyte hypertrophy (rat cardiac myocytes; data not shown): suppressed | αAR-stimulated increase in myocyte size (rat cardiac myocytes; pretreatment, then Pro 2 μM and NE 1 μM for 48 hours): prevented | actin organization, agent alone (rat cardiac myocytes; without αAR stimulation): no effect | myocyte size, agent alone (rat cardiac myocytes; without αAR stimulation): no effect | protein synthesis, agent alone (rat cardiac myocytes; without αAR stimulation): no effect | αAR-stimulated ERK phosphorylation (ERK (Thr 202/Tyr 204) [3]; adiponectin 30 μg/ml pretreatment, Pro 2 μM, NE 1 μM): suppressed | AngII-stimulated ERK phosphorylation (ERK (Thr 202/Tyr 204) [3]; data not shown): suppressed AngII-stimulated ERK phosphorylation | ERK phosphorylation, agent alone (ERK (Thr 202/Tyr 204) [3]; without αAR stimulation): no effect on ERK phosphorylation | time of maximal AMPK phosphorylation [4]: 15 min | phosphorylation of AMPK ([4]; time course): enhanced the phosphorylation of AMPK in a time-dependent manner | phosphorylation of ERK (ERK (Thr 202/Tyr 204) [5]): no effect on the phosphorylation of ERK | endothelial migration in cell-wounding assay (endothelial cells): induced the endothelial migration | HUVEC migration (HUVECs [1]): significantly stimulated HUVEC migration | Akt phosphorylation (Akt (Ser 473)): time-dependent increase in Akt phosphorylation | eNOS protein levels (eNOS (Ser 1179)): no effect on eNOS protein levels | eNOS phosphorylation at Ser 1179 (eNOS (Ser 1179); time course): time-dependent increase in eNOS phosphorylation | density of CD31-positive cells in Matrigel plugs [6]: significantly higher density of CD31-positive cells compared with controls | formation of capillary-like tubes (tube length) (HUVECs [2]): promoted the formation of capillary-like tubes in a manner similar to VEGF | stimulatory effect on corneal neovascularization relative to VEGF ([7]; adiponectin 1 μg and 10 μg vs VEGF 100 ng): comparable with that of VEGF | neovascularization in corneal implants ([7]; pellets with adiponectin 1 μg and 10 μg): markedly accelerated compared with controls | phosphorylation of AMPK [8]: stimulated the phosphorylation of AMPK in cultured cardiac myocytes in a time-dependent manner
